Source: patent US20180171024A1

Tests used:
[1] = biological target: HLA-A2 on unloaded T2 cells (human); experiment: flow cytometry, T2 cells
[2] = biological target: HLA-A2 on cells (tumor cell lines, normal primary cells, PBMCs) (human); experiment: flow cytometry, Loucy cells
[3] = biological target: HLA-A2 on cells (tumor cell lines, normal primary cells, PBMCs) (human); experiment: flow cytometry, SW620 cells
[4] = biological target: HLA-A2 on cells (tumor cell lines, normal primary cells, PBMCs) (human); experiment: flow cytometry, H2228 cells, 10 µg/ml
[5] = biological target: HLA-A2 on cells (tumor cell lines, normal primary cells, PBMCs) (human); experiment: flow cytometry, HEP-G2 cells, 10 µg/ml
[6] = biological target: HLA-A2 on cells (tumor cell lines, normal primary cells, PBMCs) (human); experiment: flow cytometry, Fib cells
[7] = biological target: HLA-A2 on cells (tumor cell lines, normal primary cells, PBMCs) (human); experiment: flow cytometry, HepG2 cells
[8] = biological target: HLA-A2 on other WT1 negative HLA-A2+ cells (other than 501, A498 and SKMEL; members not named); experiment: flow cytometry on IM-9 cells (WT1 mRNA -)
[9] = biological target: HLA-A2 on cells (tumor cell lines, normal primary cells, PBMCs) (human); experiment: flow cytometry, SKMEL5 cells
[10] = biological target: HLA-A2 on cells (tumor cell lines, normal primary cells, PBMCs) (human); experiment: flow cytometry, 'Umbryonic cells' #HUE-1, 10 µg/ml
[11] = biological target: HLA-A2 on cells (tumor cell lines, normal primary cells, PBMCs) (human); experiment: flow cytometry, WM-115 melanoma cells
[12] = biological target: HLA-A2 on cells (tumor cell lines, normal primary cells, PBMCs) (human); experiment: flow cytometry, SK-Mel5 melanoma cells
[13] = biological target: HLA-A2/MAGE-A4 230-239 complex on cells (human); experiment: flow cytometry, T2 cells loaded with 10^-4 M peptide
[14] = biological target: HLA-A2/MAGE-A9 223-231 complex on T2 cells (human); experiment: as above
[15] = biological target: HLA-A2/PAP 112-120 complex on T2 cells (human); experiment: as above
[16] = biological target: HLA-A2 on cells (tumor cell lines, normal primary cells, PBMCs) (human); experiment: flow cytometry, Malme-3M melanoma cells
[17] = biological target: HLA-A2 on cells (tumor cell lines, normal primary cells, PBMCs) (human); experiment: flow cytometry, KYSE-140 cells, 10 µg/ml
[18] = biological target: HLA-A2 on cells (tumor cell lines, normal primary cells, PBMCs) (human); experiment: flow cytometry, astrocytes 1800, 10 µg/ml
[19] = biological target: HLA-A2 on HLA-A2+ cells that do not express WT1 (tumor cell lines, normal primary cells); experiment: flow cytometry on A498 cells (WT1 mRNA -)
[20] = biological target: HLA-A2/PAP 112-120 complex on T2 cells (human); experiment: flow cytometry, T2 cells loaded with PAP112 [..], 10 µg/ml
[21] = biological target: HLA-A2/TyrD-S1 on T2 cells (human); experiment: flow cytometry, T2 cells loaded with TyrD S1 [..], 10 µg/ml
[22] = biological target: HLA-A2/TyrD-S7 on T2 cells (human); experiment: flow cytometry, T2 cells loaded with TyrD S7 [..], 10 µg/ml
[23] = biological target: HLA-A2/TyrD-S8 on T2 cells (human); experiment: flow cytometry, T2 cells loaded with TyrD S8 [..], 10 µg/ml
[24] = biological target: HLA-A2 on cells (tumor cell lines, normal primary cells, PBMCs) (human); experiment: flow cytometry, hepatocytes #5200-1, 10 µg/ml
[25] = biological target: HLA-A2/P68 on T2 cells (human); experiment: flow cytometry, T2 cells loaded with P68 peptide
[26] = biological target: HLA-A2/209M on T2 cells (human); experiment: flow cytometry, T2 cells loaded with 209M peptide
[27] = biological target: HLA-A2/MART1(26) on T2 cells (human); experiment: flow cytometry, T2 cells loaded with MART1 peptide
[28] = biological target: HLA-A2/NFACT on T2 cells (human); experiment: flow cytometry, T2 cells loaded with NFACT peptide
[29] = biological target: HLA-A2/TyrD-S20 on T2 cells (human); experiment: flow cytometry, peptide-loaded T2 cells (10^-5 M), PE anti-mouse IgG
[30] = biological target: HLA-A2/TyrD-S21 on T2 cells (human); experiment: as above
[31] = biological target: HLA-A2/TyrD-S22 on T2 cells (human); experiment: as above
[32] = biological target: HLA-A2/TyrD-S23 on T2 cells (human); experiment: as above
[33] = biological target: HLA-A2/P68 on T2 cells (human); experiment: flow cytometry, T2 cells loaded with P68 [..], 10 µg/ml
[34] = biological target: HLA-A2 on cells (tumor cell lines, normal primary cells, PBMCs) (human); experiment: flow cytometry, renal epithelial cells 4100-2, 10 µg/ml
[35] = biological target: HLA-A2/M1 on T2 cells (human); experiment: flow cytometry, T2 cells loaded with M1 peptide
[36] = biological target: HLA-A2/TyrN on T2 cells (human); experiment: flow cytometry, T2 cells loaded with TyrN [..], 10 µg/ml
[37] = biological target: HLA-A2/Tyrosinase369-377 complex on cells (human); experiment: flow cytometry, T2 cells loaded with TyrD [..], 10 µg/ml
[38] = biological target: HLA-A2/WT1 126-134 complex on T2 cells (human); experiment: flow cytometry, T2 cells loaded with WT1 peptide 1x10e-5M
[39] = biological target: HLA-A2/MAGE-A4 230-239 complex on cells (human); experiment: flow cytometry, T2 cells loaded with MAGE-A4 [..], 10 µg/ml
[40] = biological target: HLA-A2/TyrD-S5 on T2 cells (human); experiment: flow cytometry, T2 cells loaded with TyrD S5 [..], 10 µg/ml
[41] = biological target: HLA-A2/TyrD-S12 on T2 cells (human); experiment: flow cytometry, T2 cells loaded with TyrD S12 [..], 10 µg/ml

## BB7.2 (antibody)
[1]
  GeoMean: 1380
[2]
  GeoMean: 734
[3]
  GeoMean: 369
[4]
  MFI: 210
[5]
  MFI: 315
[6]
  GeoMean: 613
[7]
  GeoMean: 154
[8]
  MFI: 727
[9]
  GeoMean: 281
[10]
  MFI: 553
[11]
  MFI: 127
[12]
  MFI: 76
[13]
  MFI: 492
[14]
  MFI: 486
[15]
  MFI: 540
[16]
  MFI: 372
[17]
  MFI: 36.1
[18]
  MFI: 590
[19]
  MFI: 350
[20]
  MFI relative to background: 1170
[21]
  MFI relative to background: 596
[22]
  MFI relative to background: 666
[23]
  MFI relative to background: 539
[24]
  MFI: 591
[25]
  MFI: 2660
[26]
  MFI: 2870
[27]
  MFI: 2500
[28]
  MFI: 2720
[29]
  MFI relative to background: 445
[30]
  MFI relative to background: 654
[31]
  MFI relative to background: 464
[32]
  MFI relative to background: 443
[33]
  MFI relative to background: 1220
[34]
  MFI: 564
[35]
  MFI: 1990
[36]
  MFI relative to background: 483
[37]
  MFI relative to background: 430
[38]
  MFI: 369
[39]
  MFI relative to background: 965
[40]
  MFI relative to background: 546
[41]
  MFI relative to background: 532
